Results reported in patent US20220363757A1 (SYMPHOGEN A S, published 2022).
Substitutions are numbered along the chain they refer to.

T1: human LAG-3 domain 1-2 Fc fusion, point mutation #44 R97A (human, UniProt P18627 23-266)
T1 construct: not shown: human IgG1 Fc, AA P101-K330
T1 sequence: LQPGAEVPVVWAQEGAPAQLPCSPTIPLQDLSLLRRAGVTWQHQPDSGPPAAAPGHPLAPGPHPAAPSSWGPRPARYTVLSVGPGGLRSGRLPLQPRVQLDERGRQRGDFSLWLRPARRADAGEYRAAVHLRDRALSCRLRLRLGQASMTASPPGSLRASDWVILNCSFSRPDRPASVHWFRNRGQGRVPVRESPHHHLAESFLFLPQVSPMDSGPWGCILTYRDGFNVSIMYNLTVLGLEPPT

T2: human LAG-3 domain 1-2 Fc fusion, point mutation #48 V101A (human, UniProt P18627 23-266)
T2 construct: not shown: human IgG1 Fc, AA P101-K330
T2 sequence: T1 sequence with A75R, V79A

T3: human LAG-3 domain 1-2 Fc fusion, point mutation #59 Q117A (human, UniProt P18627 23-266)
T3 construct: not shown: human IgG1 Fc, AA P101-K330
T3 sequence: T1 sequence with A75R, Q95A

T4: human LAG-3 domain 1-2 Fc fusion, point mutation #62 Q121A (human, UniProt P18627 23-266)
T4 construct: not shown: human IgG1 Fc, AA P101-K330
T4 sequence: T1 sequence with A75R, Q99A

T5: human LAG-3 domain 1-2 Fc fusion, point mutation #67 R127A (human, UniProt P18627 23-266)
T5 construct: not shown: human IgG1 Fc, AA P101-K330
T5 sequence: T1 sequence with A75R, R105A

T6: human LAG-3 domain 1-2 Fc fusion, point mutation #74 P138A (human, UniProt P18627 23-266)
T6 construct: not shown: human IgG1 Fc, AA P101-K330
T6 sequence: T1 sequence with A75R, P116A

T7: human LAG-3 domain 1-2 Fc fusion, point mutation #79 S159A (human, UniProt P18627 23-266)
T7 construct: not shown: human IgG1 Fc, AA P101-K330
T7 sequence: T1 sequence with A75R, S137A

T8: human LAG-3 domain 1-2 Fc fusion, point mutation #9 D52A (human, UniProt P18627 23-266)
T8 construct: not shown: human IgG1 Fc, AA P101-K330
T8 sequence: T1 sequence with D30A, A75R

T9: human LAG-3 domain 1-2 Fc fusion, point mutation #20 A73S (human, UniProt P18627 23-266)
T9 construct: not shown: human IgG1 Fc, AA P101-K330
T9 sequence: T1 sequence with A51S, A75R

B1: Fab fragment of antibody 15572 (Fab, V domains shown, not shown: a dimerising Fc or GST)
VH: QLQLQESGPGLVKPSETLSLTCTVSGDSISSSSYYWGWIRQPPGKGLEWIGSIFYSGNTYYNPSLKSRVTISVDTSKNQFSLKLSSVTAADTAVYYCAREDDFLTDYYGAFDIWGQGTMVTVSS
VL: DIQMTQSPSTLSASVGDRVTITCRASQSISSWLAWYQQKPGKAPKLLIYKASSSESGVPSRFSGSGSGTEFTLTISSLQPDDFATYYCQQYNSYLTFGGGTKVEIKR
notes: monomeric Fab made by GingisKHAN digestion of the IgG1
B2: Fab fragment of antibody 15532 (Fab, V domains shown, not shown: a dimerising Fc or GST)
VH: QVQLQQWGAGLLRPSETLSLTCAVYGESFSGYYWNWIRQPPGKGLEWIGEINHSGSTNYNPSLKSRVTISVDTSKTQFSLKLSSVTAADTAVYYCARGWDLLDWNDYWNEYWGQGTLVTVSS
VL: EIVLTQSPATLSLSPGERATLSCRASQSVSSYLAWYQQKPGQAPRLLIYDASNRATGIPARFSGSGSGTDFTLTISSLEPEDFAVYYCQQRSNWPLTFGGGTKVEIKR
notes: as for B1
B3: Fab fragment of antibody 15431 (Fab, V domains shown, not shown: a dimerising Fc or GST)
VH: QVQLQQSGPGLVKPSQTLSLTCAISGDSVSSNSAAWNWIRQSPSRGLEWLGRTYYRSKWYNDYAVSVKSRITINPDTSKNQFSLQLNSVTPEDTAVYYCARDDDWNDFDYWGQGTLVTVSS
VL: B2 VL
notes: as for B1
B4: Fab fragment of antibody 15011 (Fab, V domains shown, not shown: a dimerising Fc or GST)
VH: EVQLLESGGGLVQPGGSLRLSCAASGFDFRSYAMMWVRQAPGKGLEWVGGINGEVGGSNTYYAPAVKGRATISRDNSKNTLYLQMNSLRAEDTAVYYCVKGAGACGICNDDIDAWGQGTLVTVSS
VL: SYELTQDPAVSVALGQTVRITCSGAGSYAGSYYYGWHQQKPGQAPVTVIYDNDKRPSNIPDRFSGSSSGNTASLTITGAQAEDEADYYCGSTNDNDDGGLFGSGTKVTVLG
notes: as for B1

Legend:
Assay in all cases: SPR, Fab over captured mutant LAG-3-Fc;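 further: fc fusion variants captured on anti-human IgG Fc sensor, Fab injected with association then dissociation phases, KD obtained from Langmuir one-to-one fit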
[1] = target: T1, human LAG-3 domain 1-2 Fc fusion, point …
[2] = target: T2, human LAG-3 domain 1-2 Fc fusion, point …
[3] = target: T3, human LAG-3 domain 1-2 Fc fusion, point …
[4] = target: T4, human LAG-3 domain 1-2 Fc fusion, point …
[5] = target: T5, human LAG-3 domain 1-2 Fc fusion, point …
[6] = target: T6, human LAG-3 domain 1-2 Fc fusion, point …
[7] = target: T7, human LAG-3 domain 1-2 Fc fusion, point …
[8] = target: T8, human LAG-3 domain 1-2 Fc fusion, point …
[9] = target: T9, human LAG-3 domain 1-2 Fc fusion, point …

| KD mutant/KD wild type [1] [fold] | binding result [2] | KD mutant/KD wild type [3] [fold] | KD mutant/KD wild type [4] [fold] | KD mutant/KD wild type [5] [fold] | binding result [6] | KD mutant/KD wild type [7] [fold] | binding result [8] | KD mutant/KD wild type [9] [fold] | KD mutant/KD wild type [2] [fold] | KD mutant/KD wild type [6] [fold] | KD mutant/KD wild type [8] [fold] | Binder |
| --- | --- | --- | --- | --- | --- | --- | --- | --- | --- | --- | --- | --- |
| 0.6 | no binding (tested: 300 nM) | 0.5 | 0.6 | 0.5 | no binding (tested: 300 nM) | 0.3 | no binding (tested: 300 nM) | 0.6 | – | – | – | B1 |
| 0.9 | – | 0.8 | 0.9 | 0.6 | – | 0.7 | – | 0.7 | 3.5 | 2.7 | 1.7 | B2 |
| 1.3 | no binding (tested: 300 nM) | 0.4 | 1 | 0.9 | no binding (tested: 300 nM) | 0.9 | no binding (tested: 300 nM) | 0.6 | – | – | – | B3 |
| 0.7 | – | 0.7 | 0.9 | 0.9 | – | 0.7 | – | 0.7 | 0.5 | 0.7 | 0.7 | B4 |
